Reference: US20190062448A1, “ANTI-CD39 ANTIBODIES, COMPOSITIONS COMPRISING ANTI-CD39 ANTIBODIES AND METHODS OF USING ANTI-CD39 ANTIBODIES” (Tizona Therapeutics, priority 2017, published 2019)
“Also recorded” adds a separate entry of the source.

T1: human CD39 endogenously expressed on MEL-28 cells (Homo sapiens, UniProt P49961)
T1 construct: MEL-28 cells (35,000 MEL-28 cells/well) endogenously expressing human CD39; endogenous in cells; host or cells: MEL-28
T1 sequence (P49961 1-510): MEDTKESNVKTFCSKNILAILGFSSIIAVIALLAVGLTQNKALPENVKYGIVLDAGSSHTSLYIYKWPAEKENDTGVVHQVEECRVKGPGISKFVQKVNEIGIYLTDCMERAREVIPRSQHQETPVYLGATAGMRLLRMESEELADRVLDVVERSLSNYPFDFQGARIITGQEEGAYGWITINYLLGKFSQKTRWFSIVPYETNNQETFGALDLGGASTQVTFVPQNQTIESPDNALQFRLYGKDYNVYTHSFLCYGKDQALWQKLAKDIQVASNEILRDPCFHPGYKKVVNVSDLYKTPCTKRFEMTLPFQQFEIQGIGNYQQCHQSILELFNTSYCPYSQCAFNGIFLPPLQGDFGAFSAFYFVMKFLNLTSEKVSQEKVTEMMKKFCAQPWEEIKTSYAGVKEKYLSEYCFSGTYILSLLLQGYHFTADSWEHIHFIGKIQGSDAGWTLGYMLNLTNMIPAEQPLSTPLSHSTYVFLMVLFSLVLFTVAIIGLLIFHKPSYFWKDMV

T2: hCD39-ECD (Homo sapiens, UniProt P49961)
T2 sequence (P49961 38-478 limits assumed): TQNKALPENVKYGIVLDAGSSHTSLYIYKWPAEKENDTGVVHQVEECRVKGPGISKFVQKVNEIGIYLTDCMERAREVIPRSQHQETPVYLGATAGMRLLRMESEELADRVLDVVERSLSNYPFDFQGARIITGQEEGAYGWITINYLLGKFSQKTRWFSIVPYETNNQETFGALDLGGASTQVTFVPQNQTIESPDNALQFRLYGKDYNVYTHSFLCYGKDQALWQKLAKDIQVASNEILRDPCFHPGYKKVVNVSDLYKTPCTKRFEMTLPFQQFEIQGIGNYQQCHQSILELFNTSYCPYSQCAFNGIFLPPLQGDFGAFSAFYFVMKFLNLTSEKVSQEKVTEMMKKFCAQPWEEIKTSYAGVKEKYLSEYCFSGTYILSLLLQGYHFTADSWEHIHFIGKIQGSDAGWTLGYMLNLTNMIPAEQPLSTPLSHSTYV

T3: CD39 expressed on MEL-28 cells (Homo sapiens, UniProt P49961)
T3 construct: endogenous in cells; host or cells: MEL-28
T3 sequence (P49961 1-510): T1 sequence (P49961 1-510)

B1: 27571: anti-human CD39 antibody inhibiting soluble ECD and cellular CD39 (antibody, V domains shown)
VH: QVQLVQSGAEVKKPGSSVKASCKASGGTFSSYAISWVRQAPGQGLEWMGSIIPIFGTANYAQKFRGRVTITADESTSTTYMELSSLRSEDTAVYYCARESGGYRDHRLDVWGQGTMVTVSS
VL: EIVMTQSPATLSVSPGERATLSCRASQSVGSNLAWYQQKPGQAPRLLIYGASTRATGIPARFSGSGSGTEFTLTISSLQSEDFAVYYCQQYLIWPLTFGGGTKVEIK
modifications: Synthetic VH, 27571; Synthetic VL, 27571

Tests used:
[1] = target: T1, human CD39 endogenously expressed on MEL-28 cells; assay: EnzChek kinetic Pi detection assay on MEL-28 cells (initial velocity, Michaelis-Menten); type: cell-based; details: ARL 200 micromolar, isotype control 7.7
Procedure: Anti-CD39 antibodies (100 nanomolar), isotype control antibody (100 nanomolar), or ARL (200 micromolar) were incubated with MEL-28 cells endogenously expressing human CD39 for 2 hours. ATP was then added and the rate of ATP hydrolysis to Pi by CD39 was monitored using the EnzChek kinetic Pi detection assay. The initial enzyme velocity, ν0, was determined from the linear region of Pi vs. time curve over the first 15 minutes post-ATP addition. Each value is the mean of 3 replicates.
Anti-CD39 antibodies or isotype control antibody (100 nanomolar final concentration) were incubated with MEL-28 cells (35,000 MEL-28 cells/well) endogenously expressing human CD39 at 37° C. for 20 minutes in the presence of EnzChek reagents (PNP & MESG). Immediately following the addition of ATP (final concentrations ranging from 0-450 micromolar), the rate of ATP hydrolysis to free phosphate (Pi) by CD39 was monitored over time at Abs360 nm using SpectraMax i3x plate reader. The initial enzyme velocity, ν0, was determined from the linear region of Pi vs. time curve for each ATP concentration. The plot of ν0 vs. [ATP] was curve fit using non-linear regression of the Michaelis-Menten kinetic model.

hCD39-ECD [2] = target: T2, hCD39-ECD; assay: rhCD39-ECD ATPase inhibition (Malachite Green free phosphate); type: biochemical; design: purchased R&D Systems; details: 50 μg/ml antibody; 10 μM ATP; vs isotype or buffer controls
Procedure: 0.04-3.3 nM rhCD39-ECD (R&D Systems) was incubated with buffer, 50 μg/ml antibody or 100 μM POM-1 (Alpha Aesar) for 1 hr at 37° C. in assay buffer (25 mM Tris pH 7.5, 5 mM CaCl2) at which point ATP (Sigma) was spiked in to a final concentration of 10 μM, and the reaction further incubated for 30 min 37° C. Production of free phosphate (Pi) was subsequently measured using Malachite Green Phosphate Detection kit (R&D Systems).
(§1) Also, an 18 hour incubation was used with the antibody or isotype control. Finally, an additional 30 second baseline dip in buffer between antigen capture and dipping into a second competitor antibody for 300 seconds was used.

[3] = target: T3, CD39 expressed on MEL-28 cells; assay: Cellular CD39 ATPase inhibition (Malachite Green), Example 15; type: cell-based; details: 10-25 μg/ml antibody; 50 μM ATP; vs isotype control
Procedure: Indicated cells were incubated in assay buffer with 10-25 μg/ml antibody, 100 μM POM-1 or 100 μM ARL for 30 min at 37° C. 5% CO2. ATP was added to a final concentration of 50 μM and the incubation continued for 15 min. Supernatant was evaluated for free phosphate (Pi) using the Malachite Green Phosphate Detection kit. Palivizumab is used as an isotype control and POM-1 and ARL are non-specific small molecule inhibitors of CD39.
as §1

hCD39-ECD [4] = target: T2, hCD39-ECD; assay: Epitope binning / competition for hCD39-ECD binding by Bio-Layer Interferometry
Description: A1 antibody was immobilized onto an Anti-Mouse IgG Fc Capture (AMC) biosensor (ForteBio). Association of hCD39-ECD was then monitored for 180 seconds via Bio-Layer Interferometry (BLI) using the Octet system (ForteBio), at which point the biosensor was dipped into competitor antibody and monitored for another 180 seconds.
The methods are the same as set forth above except that instead of A1, the representative antibody was immobilized using anti-human IgG Fc Capture (AHC) biosensor.
as §1

Molecule | ATP hydrolysis rate (initial velocity) [1] [micromolar Pi per minute] | inhibition of ATPase activity of soluble hCD39 ECD (μM Pi) (hCD39-ECD [2]) | inhibition of ATPase activity of CD39 expressed on MEL-28 cells [3] | competition / binning with other anti-CD39 antibody bin groups for ECD binding (hCD39-ECD [4]) | competition with antibody A1 for binding to hCD39 ECD (hCD39-ECD [4]; A1 immobilized, ECD captured, then competitor antibody)
CCN(CC)c1ncnc2c1ncn2[C@@H]1O[C@H](COP(=O)(O)OP(=O)(O)C(Br)(Br)P(=O)(O)O)[C@@H](O)[C@H]1O [ARL] | 1.2 |  |  |  | 
B1 |  | able to inhibit the hydrolysis of ATP by hCD39 ECD | inhibit the hydrolysis of CD39 expressed on MEL-28 cells | do not compete | does not block binding; also recorded: do not compete
